This note sets out measurements from publication PMC2657102, “Molecular cloning and characterization of a novel pyrethroid-hydrolyzing esterase originating from the Metagenome” (Microbial Cell Factories, 2008).

In this data set the test system is CC1(C)C(C=C(Cl)Cl)C1C(=O)OCc1cccc(Oc2ccccc2)c1. Kind of data set: purified protein. The note with it: analogous to ρ-nitrophenyl ester assay (50 mM sodium phosphate pH 7.0, 30°C).

Where “and” joins values, the source holds several entries; their conditions need not be identical. Equal entries are not always repeated.

Turning to “Pye3 (pyrethroid-hydrolyzing esterase) (uncultured prokaryote)”, the Km is 0.10 µM and 0.18 µM.

What is called Km is the substrate concentration at which the rate is half of its maximum.
